For experiment [1], the target named is DC-SIGN Biot-ECD (biotinylated extracellular domain of DC-SIGN) (UniProt Q9NNX6). The experiment can be described thus: SPR.
The target of experiment [2] is MGL Biot-ECD (biotinylated extracellular domain of MGL) (UniProt Q8IUN9). In words: SPR.
UniProt Q8IUN9, sequence (Q8IUN9 61-316): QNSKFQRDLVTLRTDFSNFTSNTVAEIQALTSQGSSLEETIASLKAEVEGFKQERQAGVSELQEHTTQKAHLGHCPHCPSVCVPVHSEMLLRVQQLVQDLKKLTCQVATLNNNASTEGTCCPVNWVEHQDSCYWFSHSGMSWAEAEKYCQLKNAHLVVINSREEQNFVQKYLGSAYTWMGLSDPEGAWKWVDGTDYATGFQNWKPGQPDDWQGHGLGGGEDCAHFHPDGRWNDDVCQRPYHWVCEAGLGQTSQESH

UniProt Q9NNX6, sequence (Q9NNX6 59-404): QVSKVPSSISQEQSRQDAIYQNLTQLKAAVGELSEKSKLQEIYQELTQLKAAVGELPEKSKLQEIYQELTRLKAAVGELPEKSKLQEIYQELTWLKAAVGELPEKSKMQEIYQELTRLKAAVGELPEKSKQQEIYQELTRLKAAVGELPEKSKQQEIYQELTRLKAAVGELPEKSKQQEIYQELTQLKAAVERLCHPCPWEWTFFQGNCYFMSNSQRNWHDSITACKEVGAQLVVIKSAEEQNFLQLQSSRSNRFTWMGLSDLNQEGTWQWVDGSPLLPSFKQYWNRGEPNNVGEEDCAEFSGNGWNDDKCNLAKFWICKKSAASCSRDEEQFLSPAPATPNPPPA

“Spike Receptor Binding Domain of SARS-CoV-2 fused to the SpyCatcher (RBD-SC) (from UniProt P0DTC2 320-554)”: the figures for the Kd in experiment [1] and in experiment [2] were 601 nM and 982 nM, respectively.

The values above are taken from article PMC9687312.
